Measurements as given in patent US7026282B1, “Peptide antagonists of the human urokinase receptor and method for selecting them” (Cancerforskningsfonden AF 1989 (Fonden Til Fremme AF …, priority 1998, dated 2006).
“Also recorded” adds a separate entry of the source. Values belong to the molecule of their own block, whether it stands above or below them. Positions of bridges follow the written chain, without caps; N, C: chain ends. Non-standard residues stand in square brackets, D forms with d. Residues, ends and D or L forms follow the SMILES beside them. Chains are numbered I, II in the order given. No end group written: not given here. Cha = N[C@@H](CC1CCCCC1)C(=O)O; βAla = NCCC(=O)O

Experiments:
[1] = Peptide stability in mouse serum ex vivo, read out by ATF cell-binding inhibition; assay type: in vitro ADME; details: 10% mouse serum, up to 24 hours, 37° C.
Description: Mouse blood was collected from anaesthetised mice (femal nu/nu-META/Bom (Bomholtgaard, Ry, Denmark)) by cardiac puncture. The blood samples were allowed to clot for 30 min at room temperature, followed by centrifugation at 1,000×g for 10 min at 20° C., and the sera were sterile filtered using 0.8 μm/0.2 μm filters (Acrodisc PF, Gelman Science, MI) and then stored at 4° C. until use. The peptide antagonists were added to fresh pooled mouse serum at the indicated concentrations (FIG. 5) and incubated at 37° C. for different periods, between 0 hours and 24 hours. Serum incubated samples were diluted 1:10 in binding buffer (0.1% bovine serum albumin and 5 mM Hepes in Eagles MEM supplemented with Glutamax-1, pH 7.4). Subsequently, cell binding experiments in the presence of ^125I-labelled human ATF were performed in duplicates as above, by preincubating MDA-MB-231 BAG cells at 37° C. 15 min with the 1:10 diluted serum incubated samples ± peptides. In parallel, peptides diluted in binding buffer alone were included as controls.
AE118 and AE78 (for comparison) were incubated at 37° C. in the presence of 10% mouse serum for different time intervals, up to 24 hours. The incubation mixtures were tested for their ability to inhibit binding of radio-labelled human uPA amino terminal fragment (ATF) to monolayer cultures of human MDA-MB-231 breast cancer cells, as described in Example 7.

[2] = target: T1, neuramimidase-treated human suPAR (soluble recombinant uPAR) (Homo sapiens, UniProt Q03405); experiment: Biacore Binding Assay (surface plasmon resonance), ligand binding to immobilised suPAR; details: for koff: Biacore, 5° C., immobilised suPAR, read-out: kdiss (dissociation rate constant, off-rate)
T1 construct: A soluble recombinant variant of human uPAR (suPAR) was expressed in Chinese hamster ovary (dhfr) cells; made in house; host or cells: Chinese hamster ovary (dhfr) cells
Description: Association rate constants (kass), dissociation rate constants (kdiss) and equilibrium binding constants (kd) for various synthetic peptides and receptor binding derivatives of human uPA were determined by surface plasmon resonance (R. Karlsson et al. (1991) J. Immunol. Meths. 145:229–240) using a BIAcore2000™ instrument (Pharmacia Biosensor, Uppsala, Sweden). Due to the low isoelectric point of uPAR (pI≈4.5) terminal sialic acid residues were removed from its N-linked carbohydrates to facilitate chemical immobilisation on the sensor chip. This was accomplished by incubating purified suPAR (1 mg/ml in 50 mM phosphate, 150 mM NaCl, pH 7.4) with 5 μg/ml neuramimidase for 4 hours at 37° C. […] Coupling of the neuramimidase-treated suPAR to a BIAcore sensor chip was achieved by injection of 20 μg/ml suPAR in 10 mM sodium acetate pH 5.0 for 6 minutes at a flow rate of […] per minute using a carboxymethylated dextran matrix (CM5 sensor chip) preactivated with N-hydroxysuccinimide/N-ethyl-N′-[3-([…])propyl]carbodiimide according to the manufacturer's recommendations. Approximately 1,500–2,000 resonance units (RU) were immobilised by this procedure (corresponding to 1–2 ng suPAR/mrn^2).
Sensorgrams (RU versus time) were recorded (FIG. 2) at a flow rate of 10 μl per min at 5° C. using several different concentrations of the ligand (synthetic peptides, uPA, the amino-terminal fragment (ATF) of uPA, or the growth factor domain (GFD) of uPA) in the range of 10 to 1000 nM in running buffer (10 mM HEPES, 150 mM NaCl, 3 mM EDTA (pH 7.4) including 0.005% surfactant P-20). Stock solutions of peptides from combinatorial chemistry were made in DMSO (10 mg peptide/ml DMSO). The sensor chip was regenerated at the end of each run by injection of 0.1 M acetic acid, 0.5 M NaCl. Data obtained from parallel mock coupled flow cells (subjected to the coupling procedure in the presence of buffer only) served as blank sensorgrams for subtraction of changes in bulk refractive index. The sensorgrams obtained were analysed by non-linear least squares fitting using BIAevaluation 2.0 software (Pharmacia Biosensor, Uppsala, Sweden) assuming single-site association and dissociation models.
Purified human suPAR (1 mg/ml in 50 mM phosphate, 150 mM NaCl, pH 7.4) was incubated with 5 μg/ml neuramimidase for 4 hours at 37° C.
In order to couple the neuramimidase-treated suPAR to a BIAcore sensor chip, 20 μg/ml suPAR in 10 mM sodium acetate (pH 5.0) was injected for 6 minutes at a flow rate of 5 μl per minute using a carboxymethylated dextran matrix (CM5 sensor chip), thereby immobilising approximately 1,500–2,000 resonance units (RU), which correspond to 1–2 ng suPAR/mm^2. The CM5 sensor chip was preactivated with N-hydroxysuccinimide/N-ethyl-N′-[3-([…])propyl]carbodiimide in accordance with the manufacturer's recommendations.
Surface plasmon resonance sensorgrams (RU versus time) were recorded at a flow rate of 10 μl per min at 5° C. using several different concentrations of the ligand (i.e. the relevant peptide or GFD) in the range from 10 to 1000 nM in running buffer (10 mM HEPES, 150 mM NaCl, 3 mM EDTA (pH 7.4) including 0.005% surfactant P-20).
The sensor chip was regenerated at the end of each run by injection of 0.1 M acetic acid, 0.5 M NaCl.
Data from parallel mock coupled flow cells (subjected to the coupling procedure in the presence of buffer only) served as blank sensorgrams for subtraction of changes in bulk refractive index.
The obtained sensorgrams were analysed by non-linear least squares fitting using BIAevaluation 2.0 software (Pharmacia Biosensor, Uppsala, Sweden) assuming single-site ssociation and dissociation models.

[3] = target: cell-surface uPAR on monolayer cultures of human MDA-MB-231 breast cancer cells (Homo sapiens, UniProt Q03405); experiment: Cell binding experiments with 125I-labelled human ATF (uPA/uPAR Binding Assay)
Description: The peptides were tested for their ability to inhibit binding of radio-labelled amino terminal fragment (ATF) of human uPA to monolayer cultures of human MDA-MB-231 breast cancer cells.
MDA-MB-231 BAG cells were harvested by trypsin/EDTA treatment and added to 5% FCS supplemented medium in 24 well cluster plates at a cell density of 100,000 cells per well or as indicated otherwise. For background estimation, wells without cells were included in order to measure binding of ^125I-labelled ligand to the plastic. Next day the adherent monolayers were washed twice in binding-buffer (0.1% bovine serum albumin (BSA; Fraction V, Sigma) and 5 mM Hepes in Eagles MEM supplemented with Glutamax-1, pH 7.4). Before binding experiments, the cells were subjected to acid treatment to liberate receptor-bound endogenous uPA. Each culture well was incubated for 3 min at 23° C. with 200 μL of 0.05 M glycine-HCl, 0.1 M NaCl, pH 3.0, after which 200 μL of 0.5 M Hepes, 0.1 M NaCl pH 7.5 was added to neutralize the acid buffer. The wells were then emptied and washed once with binding buffer. Various competitors diluted in binding buffer were then added to the wells, followed by a pre-incubation at 37° C. for 15 min. Finally, ^125I-labelled ligand was added to each well at a final concentration of 1 nM. […] Aliquots from the wells were finally measured for radioactivity on a γ-counter.

[4] = target: soluble recombinant variant of human uPAR (suPAR) (human) (UniProt Q03405); experiment: SPR (Biacore), ligand over immobilised neuramimidase-treated human suPAR
[5] = target: soluble recombinant variant of human uPAR (suPAR) (human) (UniProt Q03405); experiment: SPR (Biacore), immobilised human suPAR
[6] = target: T2, human uPAR on the surface of human MDA-MB-231 breast cancer cells (human, UniProt Q03405 23-305); experiment: competition with 1 nM ^125I-labelled human ATF for binding to MDA-MB-231 cell monolayers
T2 construct: whole, on cells; also called cell-surface uPAR
T2 sequence (Q03405 23-305): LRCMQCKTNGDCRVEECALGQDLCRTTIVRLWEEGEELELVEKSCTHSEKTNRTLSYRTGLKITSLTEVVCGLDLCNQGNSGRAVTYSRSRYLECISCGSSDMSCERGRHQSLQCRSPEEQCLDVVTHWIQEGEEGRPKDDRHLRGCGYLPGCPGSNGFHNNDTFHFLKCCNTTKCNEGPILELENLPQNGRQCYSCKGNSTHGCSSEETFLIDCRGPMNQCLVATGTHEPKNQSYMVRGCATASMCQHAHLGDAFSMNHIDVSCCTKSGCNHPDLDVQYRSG

Sequence of cell-surface uPAR on monolayer cultures of human MDA-MB-231 breast cancer cells (Q03405 23-305): as above
Sequence of soluble recombinant variant of human uPAR (suPAR) (human) (Q03405 23-299, change not shown): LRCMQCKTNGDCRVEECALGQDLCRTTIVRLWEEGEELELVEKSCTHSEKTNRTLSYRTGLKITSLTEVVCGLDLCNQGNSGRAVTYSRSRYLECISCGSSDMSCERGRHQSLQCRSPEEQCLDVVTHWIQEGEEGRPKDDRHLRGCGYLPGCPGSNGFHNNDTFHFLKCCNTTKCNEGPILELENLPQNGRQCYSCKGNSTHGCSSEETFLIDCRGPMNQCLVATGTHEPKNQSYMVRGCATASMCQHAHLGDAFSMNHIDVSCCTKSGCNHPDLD

koff [2]: 4e-05 s⁻¹
Molecule: CC(C)C[C@H](NC(=O)[C@H](Cc1ccc(O)cc1)NC(=O)[C@@H](CCCNC(=N)N)NC(=O)[C@@H](CO)NC(=O)[C@H](Cc1ccccc1)NC(=O)[C@H](CC1CCCCC1)NC(=O)[C@@H](N)CC(=O)O)C(=O)N[C@@H](Cc1c[nH]c2ccccc12)C(=O)N[C@@H](CO)C(=O)NCC(=O)NCCCC[C@H](NC(=O)CNC(=O)[C@H](CO)NC(=O)[C@H](Cc1c[nH]c2ccccc12)NC(=O)[C@H](CC(C)C)NC(=O)[C@H](Cc1ccc(O)cc1)NC(=O)[C@@H](CCCNC(=N)N)NC(=O)[C@@H](CO)NC(=O)[C@H](Cc1ccccc1)NC(=O)[C@H](CC1CCCCC1)NC(=O)[C@@H](N)CC(=O)O)C(=O)O [AE118, [DChaFsrYLWSG]2-K] (I: H-D[Cha]F[dS][dR]YLWSGK-OH / II: H-D[Cha]F[dS][dR]YLWSG; amide I:11-II:C; N-terminus and C-terminus assumed)
ability to inhibit ATF binding after incubation in mouse serum (stability) [1]: only a slight reduction; also recorded: more resistant than AE78

IC50 ([3]; 1 nM 125I-labelled human ATF, 0.1% BSA, read-out: IC50, inhibition of the binding of ATF to MDA-MB-231 cells): 10 nM
koff [2]: 0.00021 s⁻¹
off-rate, fold slower than AE78 ([2]; compared with AE78): 48 fold
Relative kdiss ([2]; relative to the Growth Factor Domain of uPA (GFD = 1.0)): 1.5
Molecule: CC(C)C[C@H](NC(=O)[C@H](Cc1ccc(O)cc1)NC(=O)[C@@H](CCCNC(=N)N)NC(=O)[C@@H](CO)NC(=O)[C@H](Cc1ccccc1)NC(=O)[C@H](CC1CCCCC1)NC(=O)[C@@H](N)CC(=O)O)C(=O)N[C@@H](Cc1c[nH]c2ccccc12)C(=O)N[C@@H](CO)C(=O)O [AE105, DchaFsrYLWS]
effectiveness in inhibiting radio-labelled human ATF binding to cell-surface uPAR ([3]; 0.1% bovine serum albumin): more effective than the reference peptide AE78

Relative kdiss (relative to GFD) [4]: > 100
B1: AE113 (peptide)
peptide: DNF[dS][dR]YLWS

Relative kdiss (relative to GFD) [4]: 0.21
fold slower off-rate than the monomer AE105 [5]: 5 to 7 times
B2: AE120 (peptide)
peptide 1: D[Cha]F[dS][dR]YLWSG[βAla]K
peptide 2: D[Cha]F[dS][dR]YLWSG
modifications: also: lactam at chain A 12 at chain B 10 to a chain's C-terminus

IC50 [6]: 2 nM
Relative kdiss (relative to GFD) [4]: 0.28
fold slower off-rate than the monomer AE105 [5]: 5 to 7 times
B3: AE118 (peptide)
peptide 1: D[Cha]F[dS][dR]YLWSGK
peptide 2: D[Cha]F[dS][dR]YLWSG
modifications: also: lactam at chain A 11 at chain B 10 to a chain's C-terminus
notes: also called [DChaFsrYLWSG]2-K; dimer AE118

IC50 [6]: 200 nM
Relative kdiss (relative to GFD) [4]: 72.1
B4: AE78 (peptide)
peptide: AEPMPHSLNFSQYLWYT
notes: also called Clone 20

Relative kdiss (relative to GFD) [4]: 1.5
fold slower off-rate than AE78 [5]: 48 fold
B5: AE105 (peptide)
peptide: DXFSRYLWS
modifications: beta-cyclohexyl-L-alanine (Cha) at 2; D-Ser at 4; D-Arg at 5

Relative kdiss (relative to GFD) [4]: 12.9
koff [4]: 0.00181 s⁻¹
B6: AE112 (peptide)
peptide: DFF[dS][dR]YLWS
